Measured values reported in the RNAGym collection of RNA variant scans (doi:10.7554/elife.80360).

B1: Twister Ribozyme (parent)
chain: AACACUGCCAAUGCCGGUCCCAAGCCCGGAUAAAAGUGGAGGGGGCGG

Variants of: B1
Test: self-cleavage, relative activity (ratio to wild type); higher = more cleavage; co-transcriptional

Row | Variant | self-cleavage
1 | C21U U31C | 0.103
2 | C8A C25A | 0.0389
3 | G13C A33G | 0.676
4 | C3U U6A | 0.144
5 | C8A G44C | 0.276
6 | U18A A40G | 0.0784
7 | G24C A33G | 0.101
8 | C5A G7A | 0.0771
9 | A1G G13A | 0.383
10 | A35U G43U | 0.352
11 | G28A U31C | 0.835
12 | C3G C21G | 0.0504
13 | G45C G48U | 0.577
14 | C21A U37C | 0.115
15 | C15U C26G | 0.0693
16 | G7U G39U | 0.0651
17 | G28A G48A | 0.775
18 | G17C G42A | 0.0674
19 | G24A A34C | 0.0735
20 | G41A G48C | 0.535
21 | C25U G45C | 0.247
22 | C26A G45U | 0.136
23 | G7U C46G | 0.047
24 | C9U A22C | 0.779

Row | Variant | self-cleavage
25 | C19U A35U | 0.972
26 | C3U C20U | 0.308
27 | A30C G42C | 0.111
28 | U6C G41U | 0.113
29 | A23C A32C | 0.22
30 | C20A A33C | 0.0903
31 | G13U G42A | 0.139
32 | A30U A34U | 0.85
33 | C8A C21A | 0.0745
34 | A1G A2U | 0.19
35 | G39U G47C | 0.16
36 | G13C C19U | 0.0706
37 | U18G A34C | 0.0636
38 | C19A G47C | 0.155
39 | A10G G36C | 0.855
40 | A10G G36U | 0.823
41 | C20A G28A | 0.0974
42 | C9A C21G | 0.164
43 | A2G A11U | 0.583
44 | C9G G29C | 0.396
45 | G36U G45U | 0.315
46 | U6A U31A | 0.717
47 | G7C G39U | 0.058
48 | U12C G17U | 0.291

Row | Variant | self-cleavage
49 | A4G G45A | 0.955
50 | C8U G29A | 0.516
51 | C15A A30U | 0.89
52 | A22U G39A | 0.099
53 | A11U C27U | 0.894
54 | G13C U31G | 0.585
55 | U12A A33U | 1.14
56 | G7A A32U | 0.507
57 | C3U A35U | 0.421
58 | G28U A30G | 0.999
59 | G24C U31G | 0.0739
60 | U12A G24C | 0.097
61 | G24U G41U | 0.0892
62 | C15U A40C | 0.148
63 | C5U A40G | 0.133
64 | C8A U18G | 0.0805
65 | G39A G48A | 0.388
66 | C3U A40G | 0.0544
67 | G13A G47C | 0.272
68 | A10C U31C | 0.834
69 | U12A G28U | 1.06
70 | G41U G48A | 0.401
71 | C15G U31A | 0.186
72 | A2U G48C | 0.67

Row | Variant | self-cleavage
73 | C20G A32C | 0.078
74 | C20G A32G | 0.0903
75 | G29C A34G | 0.214
76 | A10U A22G | 0.291
77 | A1U A2C | 0.118
78 | G44A C46A | 0.878
79 | G13C C25G | 0.101
80 | C5G C19U | 0.504
81 | A22C G36C | 0.345
82 | C5G G7A | 0.111
83 | G17A A35G | 0.262
84 | G17A A35C | 0.637
85 | G28C C46A | 0.684
86 | C8U C19U | 0.35
87 | C15G A34U | 0.109
88 | U6C U37G | 0.181
89 | G29A | 0.915
90 | A22U G28C | 0.548
91 | G29A G45C | 0.249
92 | C19U C21A | 0.0697
93 | G36C G45C | 0.201
94 | G7U C25G | 0.401
95 | A4G C25G | 0.189
96 | C8A C15A | 0.134

Row | Variant | self-cleavage
97 | C9A C14G | 0.0661
98 | A2G G43C | 0.122
99 | A11G G29U | 0.762
100 | C19U C25G | 0.176
101 | G13A A22U | 0.424
102 | C26A G44C | 0.212
103 | C19G G29U | 0.29
104 | A22C U31C | 1.12
105 | A11G A32C | 0.925
106 | C9U G43U | 0.126
107 | C27U A32G | 0.697
108 | A33U G39A | 0.512
109 | G16A C26A | 0.437
110 | A1C C27G | 0.121
111 | A2U G42A | 0.164
112 | G16A C25G | 0.298
113 | G16A C25A | 0.117
114 | A2U C3A | 0.077
115 | G24U U31C | 0.13
116 | C21A | 0.13
117 | C21U | 0.129
118 | C5G G45U | 0.369
119 | A1U G47U | 0.0673
120 | A4U C21G | 0.0541

Row | Variant | self-cleavage
121 | C5U A32U | 0.812
122 | G7A C21G | 0.0478
123 | G24A G28C | 0.0749
124 | C5U G41U | 0.221
125 | G24A A40U | 0.112
126 | G17C A22U | 0.0369
127 | U12A C15G | 0.17
128 | A4C A30G | 0.163
129 | A2C U6G | 0.0861
130 | G24U C46G | 0.081
131 | U18G G48U | 0.117
132 | U18A G48C | 0.395
133 | G16C G17A | 0.124
134 | A4G U18A | 0.364
135 | A23U A35U | 0.614
136 | G16A G45C | 0.595
137 | C8U G13A | 0.342
138 | G28A C46G | 0.864
139 | A2C G17U | 0.0456
140 | A22C G43C | 0.145
141 | U18A A22U | 0.17
142 | C9U A40C | 0.161
143 | A2C G16C | 0.0398
144 | C14G G39A | 0.0534

Row | Variant | self-cleavage
145 | G13C G38C | 0.32
146 | G29C G45A | 0.667
147 | G24C A30C | 0.0817
148 | U18G C21A | 0.133
149 | G28A G45C | 0.185
150 | A33U G42A | 0.283
151 | C5A G29U | 0.51
152 | G16A A30C | 0.91
153 | U6C A34G | 0.788
154 | A30G C46G | 0.964
155 | G39A G47A | 0.363
156 | C3G A4G | 0.462
157 | A11U G41C | 0.374
158 | C14A U31A | 0.796
159 | G7U U18C | 0.0819
160 | C19A A22C | 0.127
161 | A1G U31C | 0.409
162 | C26A G43A | 0.124
163 | A22G G39A | 0.101
164 | C14G C21A | 0.0482
165 | C8G C19U | 0.113
166 | A35C G38C | 0.921
167 | C19U A23C | 0.117
